“And” between values parts separate entries of the source, which are not always exact repeats. Equal entries are not always repeated.

The target in experiment [1] is CD40/Fc fusion protein (extracellular domain of human CD40 fused to the Fc domain of human IgG1) (human) (UniProt P25942). Description: BIAcore SPR, CD40/Fc captured by goat anti-human IgG1 Fc; K2 (site 2); experiment 1. In general terms: In SPR one partner is held on a chip, and binding of the other changes the refractive index at the surface.
Experiment [2] shares this target. Description: BIAcore SPR, CD40/Fc captured by goat anti-human IgG1 Fc; K1 (site 1); experiment 1.
Experiment [3] shares this target. Nature of the experiment: BIAcore SPR, CD40/Fc captured by goat anti-human IgG1 Fc; experiment 1.
Experiment [4] has the same target. Nature of the experiment: BIAcore SPR, CD40/Fc captured by goat anti-human IgG1 Fc; experiment 2.
The target is the same in experiment [5]. Description: BIAcore SPR, CD40/Fc captured by goat anti-human IgG1 Fc; K2 (site 2); experiment 2.
Experiment [6] shares this target. Description: BIAcore SPR, CD40/Fc captured by goat anti-human IgG1 Fc; K1 (site 1); experiment 2.
The target is the same in experiment [7]. Nature of the experiment: BIAcore SPR substantially as in Example 3; K1; average of two preparations.
For experiment [8] the target is unchanged. Nature of the experiment: BIAcore SPR substantially as in Example 3; K2; average of two preparations.
The next experiment addresses CD40 on B cells (UniProt P25942). Nature of the experiment: cell-based or functional assay.
Experiment [9] concerns the target CD40/Fc fusion protein (extracellular domain of human CD40 fused to the Fc domain of human IgG1) (human) (UniProt P25942). Description: biosensor (BIAcore) assay substantially as in Example 3, CD40/Fc captured.

The molecule “dimeric human CD40L (CD40L/Fc) (from UniProt P27548 47-260) (Fc fusion)” yielded a Ka in [1] of 7e+08 M⁻¹. In experiment [2], this molecule gave a Ka of 1.6e+11 M⁻¹. In [3], this molecule returned a Site 1 (mol/mol CD40/Fc) (mol/mol CD40/Fc) of 0.013 and a Site2 (mol/mol CD40/Fc) (mol/mol CD40/Fc) of 0.049.

As for “monomeric human CD40L (comprising solely the portion of the extracellular domain most homologous to TNF) (from UniProt P27548 112-260) (ligand)”, the Site2 (mol/mol CD40/Fc) (mol/mol CD40/Fc) in experiment [4] was 1.2 and 1.27.

For the molecule “trimeric human CD40L (CD40L/"leucine zipper"): oligomerizing zipper followed by the extracellular region of human CD40L, amino acids 51-261 (ligand)”, the Ka amounted to 2.6e+07 M⁻¹ in experiment [5], 7.5e+07 M⁻¹ in experiment [1], 6.6e+08 M⁻¹ in experiment [6] and 5e+09 M⁻¹ in [2]. Also, the Site 1 (mol/mol CD40/Fc) (mol/mol CD40/Fc) in experiment [4] came out at 0.26; in [3] it was 0.04. The values for the Site2 (mol/mol CD40/Fc) (mol/mol CD40/Fc) in [4] and in experiment [3] were 0.41 and 0.68, respectively.

For “trimeric murine CD40L (oligomerizing zipper, Flag octapeptide, extracellular region of murine CD40L) (from UniProt P27548 47-260) (ligand)”, the Ka in experiment [1] worked out at 1.6e+08 M⁻¹; in experiment [2], 6e+10 M⁻¹. Further, the Site 1 (mol/mol CD40/Fc) (mol/mol CD40/Fc) in experiment [3] worked out at 0.02. The Site2 (mol/mol CD40/Fc) (mol/mol CD40/Fc) in experiment [3] was 0.44.

B1: wild type CD40 ligand/zipper domain fusion protein (WT) expressed in yeast (ligand, part only; not given: leucine zipper sequence, part only)
chain, part: MQRGDEDPQIAAHVVSEANSNAASVLQWAKKGYYTMKSNLVMLENGKQLTVKREGLYYVYTQVTFCSNREPSSQRPFIVGLWLKPSSGSERILLKAANTHSSSQLCEQQSVHLGGVFELQAGASVFVNVTEASQVIHRVGFSSFGLLKL
B1: the Ka in experiment [7] came out at 7.4e+08 M⁻¹; in experiment [8], 3e+07 M⁻¹; in experiment [9], 7.7e+07 M⁻¹. The same molecule showed a B-cell proliferation (U/µg), Experiment 1 with CD40 on B cells of 77 U/µg. Further, the B-cell proliferation (U/µg), Experiment 2 in the experiment with CD40 on B cells stood at 15 U/µg.

Source of the values: patent EP0832229B1.
